Measured values reported in publication PMC8934645.

Biological target: Cas9 from Streptococcus pyogenes (SpyCas9) (Streptococcus pyogenes) (UniProt Q99ZW2)

Row | Substance | in vitro DNA cleavage by SpyCas9 RNP (256 nM), Acr titrated 0-8192 nM: Acr concentration that inhibits SpyCas9 [nM]
1 | AcrIIA25.1 (natural protein) | 512
2 | AcrIIA26 (natural protein) | > 2050
3 | AcrIIA27 (natural protein) | > 2050
4 | AcrIIA28 (natural protein) | 512
5 | AcrIIA32.1 (natural protein) | 512
